From patent US20230212306A1 (Daiichi Sankyo, published 2023) come the findings set out here.

Assay [1] deals with T1, human TLR7 (variant 1)-Flag, expressed in HEK293 cells (human, UniProt Q9NYK1 27-1049).
T1 construct: Transient expression from pcDNA3.1 in Lenti-X HEK293T cells; cells fixed and permeabilised before staining; not shown: Flag tag
T1 sequence: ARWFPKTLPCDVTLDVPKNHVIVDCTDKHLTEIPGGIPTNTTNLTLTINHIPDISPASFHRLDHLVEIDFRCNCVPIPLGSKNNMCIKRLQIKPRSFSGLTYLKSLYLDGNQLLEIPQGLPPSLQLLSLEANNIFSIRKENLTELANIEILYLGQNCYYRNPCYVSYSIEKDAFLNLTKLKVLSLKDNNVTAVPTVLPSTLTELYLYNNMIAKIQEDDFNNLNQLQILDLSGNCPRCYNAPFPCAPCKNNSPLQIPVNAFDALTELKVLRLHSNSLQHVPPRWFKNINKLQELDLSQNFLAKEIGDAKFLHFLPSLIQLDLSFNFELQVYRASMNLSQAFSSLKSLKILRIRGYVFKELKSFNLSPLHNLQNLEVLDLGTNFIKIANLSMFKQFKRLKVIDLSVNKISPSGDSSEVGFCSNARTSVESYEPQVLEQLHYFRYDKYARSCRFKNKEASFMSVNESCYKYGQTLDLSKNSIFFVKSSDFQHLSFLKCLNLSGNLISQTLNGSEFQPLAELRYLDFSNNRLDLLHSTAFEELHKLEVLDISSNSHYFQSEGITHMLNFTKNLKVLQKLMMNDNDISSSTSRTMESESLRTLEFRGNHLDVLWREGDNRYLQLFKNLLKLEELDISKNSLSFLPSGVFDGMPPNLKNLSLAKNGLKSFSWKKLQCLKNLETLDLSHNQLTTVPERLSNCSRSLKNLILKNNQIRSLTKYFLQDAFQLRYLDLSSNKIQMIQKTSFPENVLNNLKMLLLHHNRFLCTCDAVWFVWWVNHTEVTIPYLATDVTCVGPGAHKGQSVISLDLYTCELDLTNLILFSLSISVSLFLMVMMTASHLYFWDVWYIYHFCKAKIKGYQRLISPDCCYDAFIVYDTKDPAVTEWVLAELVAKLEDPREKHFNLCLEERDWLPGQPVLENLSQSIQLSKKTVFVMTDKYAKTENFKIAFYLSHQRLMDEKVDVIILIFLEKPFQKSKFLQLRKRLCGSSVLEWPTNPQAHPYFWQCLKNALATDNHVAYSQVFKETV
Kind of assay: flow cytometry on fixed and permeabilised HEK293 cells expressing human TLR7 (variant 1)-Flag. The source says:
(§1) The HEK293 cells expressing human TLR7 (variant 1)-Flag prepared in 8)-1, the HEK293 cells expressing human TLR7 (variant 2)-Flag prepared in 8)-2, the HEK293 cells expressing monkey TLR7-Flag prepared in 8)-3, the HEK293 cells expressing mouse TLR7-Flag prepared in 8)-4, and the HEK293 cells expressing rat TLR7-Flag prepared in 8)-5 were immobilized/subjected to membrane permeation with a Fixation and Permeabilization Solution (Becton, Dickinson and Company) and thereafter stained using huAT01_H3L2_IgG1LALA, which is one of the humanized anti-human TLR7 antibodies, and ALEXA FLUOR® 647 AffiniPure Goat anti-human IgG+IgM (H+L) (Jackson ImmunoResearch Inc.), which is the secondary antibody.
(§2) The binding of the humanized anti-human TLR7 antibody to human TLR7 was detected based on flow cytometry (Miltenyi Biotec K.K.), and the data was analyzed using software (Flowjo) which analyzes the data of flow cytometry.
Background: A flow cytometer gives signals particle by particle.

The target in assay [2] is T2, mouse TLR7-Flag, expressed in HEK293 cells (mouse, UniProt P58681 27-1050).
T2 construct: not shown: Flag tag
T2 sequence: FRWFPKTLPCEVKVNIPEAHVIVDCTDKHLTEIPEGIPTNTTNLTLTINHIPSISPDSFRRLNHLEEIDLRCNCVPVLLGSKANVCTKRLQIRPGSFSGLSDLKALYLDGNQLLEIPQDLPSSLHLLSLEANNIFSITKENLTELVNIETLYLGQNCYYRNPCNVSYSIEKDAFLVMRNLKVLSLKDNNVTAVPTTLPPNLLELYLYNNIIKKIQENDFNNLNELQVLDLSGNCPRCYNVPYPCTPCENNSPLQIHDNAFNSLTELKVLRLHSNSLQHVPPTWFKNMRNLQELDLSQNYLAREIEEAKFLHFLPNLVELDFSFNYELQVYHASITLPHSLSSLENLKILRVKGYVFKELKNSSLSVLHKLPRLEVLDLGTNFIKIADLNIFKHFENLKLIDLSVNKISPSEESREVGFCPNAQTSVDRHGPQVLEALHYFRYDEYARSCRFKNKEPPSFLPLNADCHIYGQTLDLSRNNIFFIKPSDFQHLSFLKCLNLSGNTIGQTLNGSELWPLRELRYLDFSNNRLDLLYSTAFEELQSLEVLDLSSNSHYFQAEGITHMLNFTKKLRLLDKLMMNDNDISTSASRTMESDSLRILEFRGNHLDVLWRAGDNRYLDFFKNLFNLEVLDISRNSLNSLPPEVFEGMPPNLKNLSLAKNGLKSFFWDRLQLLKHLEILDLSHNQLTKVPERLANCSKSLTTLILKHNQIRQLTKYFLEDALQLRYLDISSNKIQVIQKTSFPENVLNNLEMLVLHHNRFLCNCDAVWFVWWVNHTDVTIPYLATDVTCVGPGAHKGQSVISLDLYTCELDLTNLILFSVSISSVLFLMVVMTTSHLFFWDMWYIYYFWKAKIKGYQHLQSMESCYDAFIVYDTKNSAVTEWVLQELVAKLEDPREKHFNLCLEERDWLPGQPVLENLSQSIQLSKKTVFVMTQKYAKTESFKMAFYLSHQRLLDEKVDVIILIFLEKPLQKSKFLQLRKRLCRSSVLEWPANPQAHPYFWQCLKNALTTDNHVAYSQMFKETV
Kind of assay: flow cytometry on fixed and permeabilised HEK293 cells expressing mouse TLR7-Flag.
Text: as §1, §2

B1: huAT01_H3L2_IgG1LALA antibody (antibody, V domains shown)
VH: QVQLVQSGAEVKKPGASVKVSCKASGYTFTNNWLHWVRQAPGQGLEWMGDIYPSNGRTNYAQKFQGRVTLTVDKSTSTAYMELSSLRSEDTAVYFCARERGYFDYWGQGTLVTVSS
VL: DIQMTQSPSSLSASVGDRVTITCKASQDINKYIAWYQQKPGKAPKLLIHYTSTLQPGIPSRFSGSGSGRDYTLTISSLQPEDFATYYCLQYDYLLTFGQGTKVEIKR
notes: Humanized AT01; heavy huAT01_H3_IgG1LALA, light huAT01_L2
As for B1, the results for the binding result in assay [1] and in assay [2] were “binds” and “no binding”, respectively.
